Measurements: paper PMC4817942

Key:
[1] = target: neonatal Fc receptor (FcRn) (UniProt P55899); experiment: SPR; Biacore analysis; FcRn data collected at pH6; who was immobilised not told
FcγRIIA (CD32A) = FcγRIIA (CD32A) (UniProt P12318); experiment: SPR; Biacore analysis; who was immobilised, buffer and temperature not given for this experiment
FcγRIII (CD16A) = FcγRIII (CD16A) (UniProt P08637); experiment: as above
FcγRI (CD64) = FcγRI (CD64) (UniProt P12314); experiment: as above
FcγRIIB (CD32B) = FcγRIIB (CD32B) (UniProt P31994); experiment: as above
Sequence of FcγRIIB (CD32B) (P31994 43-310): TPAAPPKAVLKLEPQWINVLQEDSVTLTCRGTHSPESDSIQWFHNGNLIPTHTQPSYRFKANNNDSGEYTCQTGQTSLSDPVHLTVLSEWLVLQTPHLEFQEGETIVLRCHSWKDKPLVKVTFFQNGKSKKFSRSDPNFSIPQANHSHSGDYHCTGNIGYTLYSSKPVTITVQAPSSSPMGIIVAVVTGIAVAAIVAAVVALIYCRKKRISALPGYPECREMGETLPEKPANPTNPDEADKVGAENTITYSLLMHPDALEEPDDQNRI

[2] = target: HER2 on the cell surface (human (endogenous in SK-BR-3, HCC1954 and BT474)) (UniProt P04626)
[3] = target: human HER2 ECD-Fc recombinant (human) (UniProt P04626); experiment: SPR; BIAcore 3000; human HER2 ECD-Fc amine-coupled on a CM5 chip to 200 RU; analyte FS102 (50 µg/ml) at 20 µl/minute; HBS-P buffer; apparent KD
[4] = target: HER2 on the cell surface (human (endogenous in SK-BR-3, HCC1954 and BT474)) (UniProt P04626); experiment: flow cytometry on cells; cells with 0.1-2,000 nmol/l Fcab for 1 hour at 4 °C in DPBS with 2% FBS; detected by anti-human IgG-phycoerythrin

Sequence of FcγRIII (CD16A) (P08637 17-254): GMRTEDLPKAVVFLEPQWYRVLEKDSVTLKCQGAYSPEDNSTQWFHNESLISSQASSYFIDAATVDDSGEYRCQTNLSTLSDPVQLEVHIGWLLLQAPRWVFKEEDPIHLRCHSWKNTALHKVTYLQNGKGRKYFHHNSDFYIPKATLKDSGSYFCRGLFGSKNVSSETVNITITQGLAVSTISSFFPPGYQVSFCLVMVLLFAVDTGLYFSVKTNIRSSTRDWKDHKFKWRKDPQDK
Sequence of FcγRIIA (CD32A) (P12318 34-317): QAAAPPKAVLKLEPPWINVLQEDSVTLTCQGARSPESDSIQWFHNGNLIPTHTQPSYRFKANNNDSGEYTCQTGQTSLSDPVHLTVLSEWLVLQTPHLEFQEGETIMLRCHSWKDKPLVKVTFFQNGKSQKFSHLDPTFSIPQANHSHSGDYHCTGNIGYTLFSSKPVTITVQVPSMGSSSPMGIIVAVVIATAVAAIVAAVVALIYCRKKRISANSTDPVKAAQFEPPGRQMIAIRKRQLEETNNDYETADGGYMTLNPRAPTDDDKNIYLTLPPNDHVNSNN
Sequence of FcγRI (CD64) (P12314 16-374): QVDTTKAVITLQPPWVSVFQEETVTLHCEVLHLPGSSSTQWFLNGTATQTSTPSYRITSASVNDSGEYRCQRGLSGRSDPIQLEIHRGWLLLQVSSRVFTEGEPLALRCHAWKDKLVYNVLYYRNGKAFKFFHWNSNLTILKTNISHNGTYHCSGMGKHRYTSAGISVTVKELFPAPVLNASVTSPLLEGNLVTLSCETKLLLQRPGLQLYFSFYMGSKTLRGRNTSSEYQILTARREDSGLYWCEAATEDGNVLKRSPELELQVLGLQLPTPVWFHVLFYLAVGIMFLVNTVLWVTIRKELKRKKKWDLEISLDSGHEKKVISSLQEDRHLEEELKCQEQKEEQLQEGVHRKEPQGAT
Sequence of neonatal Fc receptor (FcRn) (P55899 whole entry, looked up, tested part not stated): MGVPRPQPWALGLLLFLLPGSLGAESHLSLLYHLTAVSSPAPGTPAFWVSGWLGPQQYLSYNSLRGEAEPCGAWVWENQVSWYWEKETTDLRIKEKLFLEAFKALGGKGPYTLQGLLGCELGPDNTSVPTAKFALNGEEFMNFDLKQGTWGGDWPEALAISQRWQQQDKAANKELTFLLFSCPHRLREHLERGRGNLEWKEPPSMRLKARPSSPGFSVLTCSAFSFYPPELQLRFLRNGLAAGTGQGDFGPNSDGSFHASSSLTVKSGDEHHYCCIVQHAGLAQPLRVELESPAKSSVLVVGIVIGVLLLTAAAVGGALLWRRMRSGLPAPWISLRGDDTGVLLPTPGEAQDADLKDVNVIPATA

Kd [1]	Kd (FcγRIIA (CD32A))	Kd (FcγRIII (CD16A))	Kd (FcγRI (CD64))	Kd (FcγRIIB (CD32B))	reduction of HCC1954 cell number after 5 days of incubation (proliferation assay) [2]	reduction of SK-BR-3 cell number after 5 days of incubation (proliferation assay) [2]	Kd [3]	EC50 [4]	Substance
20 to 60 nM	250 nM	660 nM	15 nM	5000 nM	–	–	–	–	IgG1 (antibody)
45 nM	472 nM	560 nM	19 nM	6400 nM	47%	39%	0.8 nM	3.3 nM	FS102 (designed binder)
–	1000 nM	500 nM	27 nM	6200 nM	–	–	–	–	WT Fcab (unmodified constant region of human IgG1) (domain or fragment)
–	–	–	40 nM	–	–	–	–	–	Trastuzumab (antibody)
